The source of these data is publication PMC10599630, “Human interleukin-12α and EBI3 are cytokines with anti-inflammatory functions” (Science Advances, 2023).

Assay [1] concerns the target T1, EBI3 (purified from Expi293) (human, UniProt Q14213 21-229).
T1 construct: human EBI3, UniProt Q14213; untagged; Untagged; pHEK293 ultra expression vector 1; also called recombinant human EBI3; source: Expi293, co-transfected with IL-27α^L162C,His
T1 sequence (looked up): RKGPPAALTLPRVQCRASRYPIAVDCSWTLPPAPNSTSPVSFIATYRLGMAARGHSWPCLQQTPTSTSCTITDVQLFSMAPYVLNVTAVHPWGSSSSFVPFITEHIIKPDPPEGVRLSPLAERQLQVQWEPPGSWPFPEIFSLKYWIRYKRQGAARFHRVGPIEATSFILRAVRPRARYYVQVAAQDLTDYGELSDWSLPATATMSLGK
Put plainly: pull-down; called co-IP with purified proteins: 1 μg of one protein and an equimolar amount of the other in 200 μl PBS, 1 hour at room temperature; Ni-nitrilotriacetic acid beads 2 hours at 4°C; wash PBS with 20 mM imidazole, elution 500 mM imidazole. The settings on record: both partners purified.

In assay [2] the target is T2, recombinant human IL-12β^C199S (previously purified) (human, UniProt P29460 23-328, C199S).
T2 construct: human interleukin-12 subunit beta (IL-12β/p40), UniProt P29460, with C199S; it may be the same construct as m7; also called p40 C199S; source: previously purified in our laboratory
T2 sequence (looked up): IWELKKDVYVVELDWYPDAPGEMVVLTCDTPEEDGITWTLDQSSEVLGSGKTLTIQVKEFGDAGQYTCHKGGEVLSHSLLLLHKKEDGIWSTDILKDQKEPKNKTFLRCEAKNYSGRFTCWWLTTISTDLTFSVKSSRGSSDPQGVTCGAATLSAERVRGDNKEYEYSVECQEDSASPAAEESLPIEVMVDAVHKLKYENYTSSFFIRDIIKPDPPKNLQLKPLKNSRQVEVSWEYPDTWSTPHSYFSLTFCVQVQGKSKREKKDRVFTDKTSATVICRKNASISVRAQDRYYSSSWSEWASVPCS
The assay is described as above. The conditions noted are these: both partners purified.

B1: murine IL-27α (natural protein, UniProt Q8K3I6 29-234, looked up)
chain: FPTDPLSLQELRREFTVSLYLARKLLSEVQGYVHSFAESRLPGVNLDLLPLGYHLPNVSLTFQAWHHLSDSERLCFLATTLRPFPAMLGGLGTQGTWTSSEREQLWAMRLDLRDLHRHLRFQVLAAGFKCSKEEEDKEEEEEEEEEEKKLPLGALGGPNQVSSQVSWPQLLYTYQLLHSLELVLSRAVRDLLLLSLPRRPGSAWDS
notes: mouse interleukin-27 subunit alpha (IL-27α/p28), bought recombinant protein; also called mIL-27α; source: bought: R&D Systems, 7430-ML-010
Take B1: the binding result in assay [1] is “binds”.

B2: IL-12α^C96S,His (natural protein, human, UniProt P29459 23-219, looked up)
chain: RNLPVATPDPGMFPCLHHSQNLLRAVSNMLQKARQTLEFYPCTSEEIDHEDITKDKTSTVEACLPLELTKNESSLNSRETSFITNGSCLASRKTSFMMALCLSSIYEDLKMYQVEFKTMNAKLLMDPKRQIFLDQNMLAVIDELMQALNFNSETVPQKSSLEEPDFYKTKIKLCILLHAFRIRAVTIDRVMSYLNAS
notes: human interleukin-12 subunit alpha (IL-12α/p35), UniProt P29459, with C96S (the cysteine of the interchain disulfide bond of IL-12); C-terminal TEV cleavage site followed by a GG-linker and His-tag; pcDNA3.4TOPO vector; also called IL-12αC96S with His-tag; source: ExpiCHO, co-transfected with IL-12β^C199S; not shown: His-tag, C-terminal, kept
For the molecule B2, in assay [2], the binding result is “binds”.
